The record followed here is article PMC8914023.

Assay [1] deals with F-actin (rabbit muscle actin filaments) (rabbit) (UniProt P68135). Nature of the assay: SPR. Background: SPR reads the build-up and loss of mass on a sensor chip optically.
Assay [2] addresses EhP3 (Entamoeba histolytica 14-3-3 protein isoform 3) (Entamoeba histolytica). Nature of the assay: SPR; Autolab ESPIRIT; EhP3 immobilised; EhActo flowed at increasing concentrations; 10 mM HEPES, 0.2 mM calcium acetate, 0.005% Triton-X100; 25°C.

Chain of EhP3 (Entamoeba histolytica 14-3-3 protein isoform 3) (Entamoeba histolytica) (C4M0F4 whole entry, canonical isoform): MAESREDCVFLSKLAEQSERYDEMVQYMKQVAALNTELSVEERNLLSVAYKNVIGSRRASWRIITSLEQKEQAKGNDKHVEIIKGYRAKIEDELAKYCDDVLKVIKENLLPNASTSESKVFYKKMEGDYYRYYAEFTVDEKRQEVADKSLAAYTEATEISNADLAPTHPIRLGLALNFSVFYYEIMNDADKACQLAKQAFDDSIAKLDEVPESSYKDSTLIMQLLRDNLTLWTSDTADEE

As a reminder, the Kd is the constant that tells how readily two partners part at equilibrium. “Entamoeba histolytica actophorin (EhActo) (from UniProt C4LVG4 1-138) (natural protein)”: the values for the Kd in assay [1] and in assay [2] were 249 nM and 1000 nM, respectively.
